Reference: paper PMC8233664, “CAR T cells targeting tumor-associated exons of glypican 2 regress neuroblastoma in mice” (Cell Reports Medicine, 2021)

Key:
[1] = molecular target: T1, recombinant human GPC2 protein (Homo sapiens, UniProt Q8N158); assay: BLI; Octet RED96; His-tagged GPC2 immobilised on Ni-NTA biosensors; association 600 s, dissociation 1800 s; settings: both partners purified
T1 construct: human glypican 2 (GPC2), recombinant protein from R&D Systems; also called human glypican 2; His-tagged GPC2 protein; source: bought: R&D Systems

[2] = molecular target: T2, human GPC2 exon3-hFc protein (Homo sapiens); assay: ELISA; CT3 at 1 μg/ml on human GPC1 through GPC6 and mouse GPC2 proteins (R&D Systems) and GPC2 exon 3-hFc; detected with goat anti-mouse IgG-HRP; settings: both partners purified
T2 construct: human glypican 2, the stretch encoded by exon 3 (of transcript GPC2-201); also called recombinant exon 3 fragment of GPC2; exon 3 of GPC2; source: cloned into the pVRC8400 expression plasmid
T2 chain: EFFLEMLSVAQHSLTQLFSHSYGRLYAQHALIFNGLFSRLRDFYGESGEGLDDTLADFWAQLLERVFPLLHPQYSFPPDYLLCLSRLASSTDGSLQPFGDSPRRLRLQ

[3] = molecular target: T3, recombinant human GPC6 protein (Homo sapiens, UniProt Q9Y625); assay: as above; settings: both partners purified
T3 construct: human glypican 6, recombinant protein from R&D Systems; source: bought: R&D Systems

[4] = molecular target: T4, recombinant human GPC4 protein (Homo sapiens, UniProt O75487); assay: as above; settings: both partners purified
T4 construct: human glypican 4, recombinant protein from R&D Systems; source: bought: R&D Systems

[5] = molecular target: T5, recombinant human GPC5 protein (Homo sapiens, UniProt P78333); assay: as above; settings: both partners purified
T5 construct: human glypican 5, recombinant protein from R&D Systems; source: bought: R&D Systems

[6] = molecular target: T6, recombinant human GPC3 protein (Homo sapiens, UniProt P51654); assay: ELISA; plates coated with recombinant human GPC2, GPC1 and GPC3; mouse hybridoma supernatant containing 1 μg/ml of each mAb; detected with goat anti-mouse IgG-HRP; settings: one partner purified
T6 construct: human glypican 3, recombinant protein from R&D Systems; source: bought: R&D Systems

[7] = molecular target: T7, recombinant human GPC1 protein (Homo sapiens, UniProt P35052); assay: as above; settings: one partner purified
T7 construct: human glypican 1, recombinant protein from R&D Systems; source: bought: R&D Systems

GPC2 exon 3 peptide 19 = molecular target: T8, GPC2 exon 3 peptide 19 (Homo sapiens); assay: ELISA; single 18-residue peptides at 5 μg/ml in PBS coated overnight; 1 μg/ml CT3; detected with goat anti-mouse IgG-HRP; settings: both partners purified
T8 construct: human glypican 2, 18-residue peptide no; 19 of the overlapping library (9 residues overlap), in exon 3; source: synthetic peptide (Genscript)
T8 chain: PDYLLCLSRLASSTDGSL

GPC2 exon 3 peptide 17 = molecular target: T9, GPC2 exon 3 peptide 17 (Homo sapiens); assay: as above; settings: both partners purified
T9 construct: human glypican 2, 18-residue peptide no; 17 of the overlapping library (9 residues overlap), in exon 3; source: synthetic peptide (Genscript)
T9 chain: AQLLERVFPLLHPQYSFP

GPC2 exon 3 peptide 20 = molecular target: T10, GPC2 exon 3 peptide 20 (Homo sapiens); assay: as above; settings: both partners purified
T10 construct: human glypican 2, 18-residue peptide no; 20 of the overlapping library (9 residues overlap), in exon 3; source: synthetic peptide (Genscript)
T10 chain: LASSTDGSLQPFGDSPRR

GPC2 exon 3 peptide 14 = molecular target: T11, GPC2 exon 3 peptide 14 (Homo sapiens); assay: as above; settings: both partners purified
T11 construct: human glypican 2, 18-residue peptide no; 14 of the overlapping library (9 residues overlap), in exon 3; source: synthetic peptide (Genscript)
T11 chain: FNGLFSRLRDFYGESGEG

GPC2 exon 3 peptide 13 = molecular target: T12, GPC2 exon 3 peptide 13 (Homo sapiens); assay: as above; settings: both partners purified
T12 construct: human glypican 2, 18-residue peptide no; 13 of the overlapping library (9 residues overlap), in exon 3; source: synthetic peptide (Genscript)
T12 chain: RLYAQHALIFNGLFSRLR

GPC2 exon 3 peptide 11 = molecular target: T13, GPC2 exon 3 peptide 11 (Homo sapiens); assay: as above; settings: both partners purified
T13 construct: human glypican 2, 18-residue peptide no; 11 of the overlapping library (9 residues overlap), in exon 3; source: synthetic peptide (Genscript)
T13 chain: MLSVAQHSLTQLFSHSYG

GPC2 exon 3 peptide 16 = molecular target: T14, GPC2 exon 3 peptide 16 (Homo sapiens); assay: as above; settings: both partners purified
T14 construct: human glypican 2, 18-residue peptide no; 16 of the overlapping library (9 residues overlap), in exon 3; source: synthetic peptide (Genscript)
T14 chain: LDDTLADFWAQLLERVFP

GPC2 exon 3 peptide 15 = molecular target: T15, GPC2 exon 3 peptide 15 (Homo sapiens); assay: as above; settings: both partners purified
T15 construct: human glypican 2, 18-residue peptide no; 15 of the overlapping library (9 residues overlap), in exon 3; source: synthetic peptide (Genscript)
T15 chain: DFYGESGEGLDDTLADFW

GPC2 exon 3 peptide 10 = molecular target: T16, GPC2 exon 3 peptide 10 (Homo sapiens); assay: as above; settings: both partners purified
T16 construct: human glypican 2, 18-residue peptide no; 10 of the overlapping library (9 residues overlap), in exon 3; source: synthetic peptide (Genscript)
T16 chain: RKFDEFFLEMLSVAQHSL

GPC2 exon 3 peptide 21 = molecular target: T17, GPC2 exon 3 peptide 21 (Homo sapiens); assay: as above; settings: both partners purified
T17 construct: human glypican 2, 18-residue peptide no; 21 of the overlapping library (9 residues overlap), in exon 3; source: synthetic peptide (Genscript)
T17 chain: QPFGDSPRRLRLQITRTL

GPC2 exon 3 peptide 12 = molecular target: T18, GPC2 exon 3 peptide 12 (Homo sapiens); assay: as above; settings: both partners purified
T18 construct: human glypican 2, 18-residue peptide no; 12 of the overlapping library (9 residues overlap), in exon 3; source: synthetic peptide (Genscript)
T18 chain: TQLFSHSYGRLYAQHALI

GPC2 exon 3 peptide 18 = molecular target: T19, GPC2 exon 3 peptide 18 (Homo sapiens); assay: as above; settings: both partners purified
T19 construct: human glypican 2, 18-residue peptide no; 18 of the overlapping library (9 residues overlap), in exon 3; source: synthetic peptide (Genscript)
T19 chain: LLHPQYSFPPDYLLCLSR

[8] = molecular target: human GPC2 stably overexpressed on G10 (A431) and F8 (IMR5) cells (Homo sapiens, UniProt Q8N158); assay: cell-based or functional assay
[9] = molecular target: cell surface GPC2 on neuroblastoma cells (Homo sapiens, UniProt Q8N158); assay: cell-based or functional assay
Sequence of cell surface GPC2 on neuroblastoma cells (Q8N158 24-554): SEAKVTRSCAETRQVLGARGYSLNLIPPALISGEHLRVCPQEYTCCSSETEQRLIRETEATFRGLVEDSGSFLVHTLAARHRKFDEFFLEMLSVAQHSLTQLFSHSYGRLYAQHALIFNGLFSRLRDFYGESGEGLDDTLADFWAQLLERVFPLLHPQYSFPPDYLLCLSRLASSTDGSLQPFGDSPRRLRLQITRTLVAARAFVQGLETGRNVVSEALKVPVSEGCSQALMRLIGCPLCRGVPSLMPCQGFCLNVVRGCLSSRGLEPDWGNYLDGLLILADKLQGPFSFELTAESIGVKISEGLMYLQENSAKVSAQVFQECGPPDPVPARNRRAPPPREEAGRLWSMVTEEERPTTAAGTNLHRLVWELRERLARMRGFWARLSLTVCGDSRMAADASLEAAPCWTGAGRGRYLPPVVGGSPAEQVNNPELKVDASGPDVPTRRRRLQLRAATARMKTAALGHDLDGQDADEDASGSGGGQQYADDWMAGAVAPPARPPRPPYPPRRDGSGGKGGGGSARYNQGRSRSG

T7 sequence (P35052 24-530): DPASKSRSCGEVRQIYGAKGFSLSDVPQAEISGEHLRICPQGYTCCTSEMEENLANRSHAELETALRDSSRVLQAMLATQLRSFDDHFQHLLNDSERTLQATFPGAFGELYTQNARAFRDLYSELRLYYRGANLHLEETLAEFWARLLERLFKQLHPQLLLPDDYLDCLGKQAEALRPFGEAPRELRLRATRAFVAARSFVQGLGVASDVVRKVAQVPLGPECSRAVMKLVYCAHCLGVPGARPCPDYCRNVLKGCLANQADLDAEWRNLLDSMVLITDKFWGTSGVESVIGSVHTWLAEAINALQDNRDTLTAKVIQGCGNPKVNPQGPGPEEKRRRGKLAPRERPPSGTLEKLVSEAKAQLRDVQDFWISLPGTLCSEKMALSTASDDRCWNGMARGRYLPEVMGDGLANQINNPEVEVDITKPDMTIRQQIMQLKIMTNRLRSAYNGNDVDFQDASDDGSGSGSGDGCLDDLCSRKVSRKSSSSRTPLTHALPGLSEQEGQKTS
T3 sequence (Q9Y625 24-529): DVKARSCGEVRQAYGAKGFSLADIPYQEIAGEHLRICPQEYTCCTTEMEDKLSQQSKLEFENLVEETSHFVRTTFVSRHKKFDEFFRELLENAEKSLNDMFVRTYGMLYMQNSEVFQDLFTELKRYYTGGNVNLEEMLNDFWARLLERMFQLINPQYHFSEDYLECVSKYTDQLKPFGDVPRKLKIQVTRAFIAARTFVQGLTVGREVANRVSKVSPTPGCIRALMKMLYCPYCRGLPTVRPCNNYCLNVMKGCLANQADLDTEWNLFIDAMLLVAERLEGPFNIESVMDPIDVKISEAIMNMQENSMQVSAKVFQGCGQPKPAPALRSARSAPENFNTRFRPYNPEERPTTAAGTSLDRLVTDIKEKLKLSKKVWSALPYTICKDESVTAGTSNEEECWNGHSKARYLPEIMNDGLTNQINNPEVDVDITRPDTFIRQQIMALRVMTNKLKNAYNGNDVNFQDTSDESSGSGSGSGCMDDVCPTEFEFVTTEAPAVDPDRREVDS
T6 sequence (P51654 25-580): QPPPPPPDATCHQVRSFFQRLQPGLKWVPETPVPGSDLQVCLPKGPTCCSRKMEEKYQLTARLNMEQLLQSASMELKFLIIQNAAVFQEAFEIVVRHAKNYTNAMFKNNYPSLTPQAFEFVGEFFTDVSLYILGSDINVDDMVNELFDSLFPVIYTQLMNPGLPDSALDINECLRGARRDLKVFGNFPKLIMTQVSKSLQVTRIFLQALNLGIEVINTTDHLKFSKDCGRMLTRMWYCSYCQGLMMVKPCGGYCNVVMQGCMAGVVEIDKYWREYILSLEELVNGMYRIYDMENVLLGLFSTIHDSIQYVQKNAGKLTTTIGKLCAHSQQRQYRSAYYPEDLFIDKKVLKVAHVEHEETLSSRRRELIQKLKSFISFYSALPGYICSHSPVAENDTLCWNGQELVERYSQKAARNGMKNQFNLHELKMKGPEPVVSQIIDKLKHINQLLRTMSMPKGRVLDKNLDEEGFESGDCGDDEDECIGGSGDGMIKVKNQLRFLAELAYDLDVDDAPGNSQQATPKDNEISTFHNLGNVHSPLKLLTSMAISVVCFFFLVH
Sequence of human GPC2 stably overexpressed on G10 (A431) and F8 (IMR5) cells (Q8N158 24-554): as the sequence (Q8N158 24-554) above
T1 sequence (Q8N158 24-554): as above
T4 sequence (O75487 19-529): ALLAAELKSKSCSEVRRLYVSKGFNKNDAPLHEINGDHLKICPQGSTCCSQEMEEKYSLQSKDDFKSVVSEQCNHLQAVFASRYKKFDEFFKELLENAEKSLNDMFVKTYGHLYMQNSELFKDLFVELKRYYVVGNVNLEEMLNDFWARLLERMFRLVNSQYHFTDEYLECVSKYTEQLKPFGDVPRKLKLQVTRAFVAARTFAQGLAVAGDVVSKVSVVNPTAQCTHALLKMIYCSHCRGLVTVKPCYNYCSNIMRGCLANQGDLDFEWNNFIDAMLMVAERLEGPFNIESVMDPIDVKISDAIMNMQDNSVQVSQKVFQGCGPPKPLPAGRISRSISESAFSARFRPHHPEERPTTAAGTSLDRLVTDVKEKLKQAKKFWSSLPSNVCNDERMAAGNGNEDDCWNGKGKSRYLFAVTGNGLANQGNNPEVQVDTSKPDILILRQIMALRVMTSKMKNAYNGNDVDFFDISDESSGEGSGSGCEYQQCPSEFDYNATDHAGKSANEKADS
T5 sequence (P78333 25-572): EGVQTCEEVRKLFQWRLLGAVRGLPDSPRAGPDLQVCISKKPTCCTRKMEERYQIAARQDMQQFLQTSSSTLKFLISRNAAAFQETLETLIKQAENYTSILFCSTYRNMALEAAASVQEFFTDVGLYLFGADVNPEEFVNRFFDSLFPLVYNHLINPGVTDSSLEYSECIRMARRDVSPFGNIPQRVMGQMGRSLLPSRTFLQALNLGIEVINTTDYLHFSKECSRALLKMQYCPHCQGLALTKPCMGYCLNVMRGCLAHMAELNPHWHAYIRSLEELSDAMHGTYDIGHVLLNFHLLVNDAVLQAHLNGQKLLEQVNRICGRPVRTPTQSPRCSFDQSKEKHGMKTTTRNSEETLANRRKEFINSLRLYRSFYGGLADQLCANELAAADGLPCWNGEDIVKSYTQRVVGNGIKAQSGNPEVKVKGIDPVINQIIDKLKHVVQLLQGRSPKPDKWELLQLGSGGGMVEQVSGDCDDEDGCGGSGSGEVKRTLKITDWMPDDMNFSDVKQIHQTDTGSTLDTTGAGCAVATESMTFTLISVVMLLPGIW

Kd [1]: 0.5 nM
binding result [2]: binds
binding result [3]: no binding (tested: 1 μg/mL of CT3)
binding result [4]: no binding (tested: 1 μg/mL of CT3)
binding result [5]: no binding (tested: 1 μg/mL of CT3)
binding result [6]: no binding (tested: 1 μg/ml of each mAb)
binding result [7]: no binding (tested: 1 μg/ml of each mAb)
binding result (GPC2 exon 3 peptide 19): no binding (tested: 1 μg/ml of CT3)
binding result (GPC2 exon 3 peptide 17): no binding (tested: 1 μg/ml of CT3)
binding result (GPC2 exon 3 peptide 20): no binding (tested: 1 μg/ml of CT3)
binding result (GPC2 exon 3 peptide 14): no binding (tested: 1 μg/ml of CT3)
binding result (GPC2 exon 3 peptide 13): no binding (tested: 1 μg/ml of CT3)
binding result (GPC2 exon 3 peptide 11): no binding (tested: 1 μg/ml of CT3)
binding result (GPC2 exon 3 peptide 16): no binding (tested: 1 μg/ml of CT3)
binding result (GPC2 exon 3 peptide 15): no binding (tested: 1 μg/ml of CT3)
binding result (GPC2 exon 3 peptide 10): no binding (tested: 1 μg/ml of CT3)
binding result (GPC2 exon 3 peptide 21): no binding (tested: 1 μg/ml of CT3)
binding result (GPC2 exon 3 peptide 12): no binding (tested: 1 μg/ml of CT3)
binding result (GPC2 exon 3 peptide 18): no binding (tested: 1 μg/ml of CT3)
B1: CT3 monoclonal antibody (antibody, V domains shown)
VH: EVQLQQSGPELVKPGASVKMSCKASRFTFTDYNIHWVKQSPGKTLEWIGYINPNNGDIFYKQKFNGKATLTINKSSNTAYMELRSLTSEDSAVYYCVRSSNIRYTFDRFFDVWGTGTTVTVSS
VL: ENVLTQSPAIMSASLGEKVTMSCRASSSVNYIYWYQQKSDASPKLWIYYTSNLAPGVPARFSGSGSGNSYSLTISSMEGEDAATYYCQQFSSSPSTFGTGTKLELK
notes: variable regions were cloned by 5'RACE; EM maps of the CT3 Fab/GPC2 complex deposited at wwPDB (deposition ID D_1000256119); Mouse mAb raised against the 50-residue C-terminal (exon 10) peptide of GPC2; also called CT3 mAb; source: mouse hybridoma (parental clone 2); hybridoma supernatant and purified mAb
lysis of G10 and F8 cells (high GPC2) by CT3 CAR T cells (CT3 as scFv in a 4-1BB CAR), luciferase-based killing assay, 24 h, E:T ratio 3:1 [8]: ~70%
cytotoxicity of CT3 CAR T cells (CT3 as scFv in a CAR with CD8α hinge) on NBEB cells, xCELLigence real-time analysis, E:T ratio 1:1, 25 h [9]: 74%
cytotoxicity of CT3 CAR T cells (CT3 as scFv in a CAR with CD8α hinge) on SKNAS cells, xCELLigence real-time analysis, E:T ratio 1:1, 25 h [9]: 43%
lysis of NB PDX-derived cells by CT3 CAR T cells (CT3 as scFv in a 4-1BB CAR), luciferase-based killing assay, E:T ratio 25:1, 24 to 72 h of co-culture [9]: 80%
